This is an account of results in paper PMC10765799.

One experiment has as its target T1, Gal4 AD-FAF1 WT, Q9UNN5.
T1 chain: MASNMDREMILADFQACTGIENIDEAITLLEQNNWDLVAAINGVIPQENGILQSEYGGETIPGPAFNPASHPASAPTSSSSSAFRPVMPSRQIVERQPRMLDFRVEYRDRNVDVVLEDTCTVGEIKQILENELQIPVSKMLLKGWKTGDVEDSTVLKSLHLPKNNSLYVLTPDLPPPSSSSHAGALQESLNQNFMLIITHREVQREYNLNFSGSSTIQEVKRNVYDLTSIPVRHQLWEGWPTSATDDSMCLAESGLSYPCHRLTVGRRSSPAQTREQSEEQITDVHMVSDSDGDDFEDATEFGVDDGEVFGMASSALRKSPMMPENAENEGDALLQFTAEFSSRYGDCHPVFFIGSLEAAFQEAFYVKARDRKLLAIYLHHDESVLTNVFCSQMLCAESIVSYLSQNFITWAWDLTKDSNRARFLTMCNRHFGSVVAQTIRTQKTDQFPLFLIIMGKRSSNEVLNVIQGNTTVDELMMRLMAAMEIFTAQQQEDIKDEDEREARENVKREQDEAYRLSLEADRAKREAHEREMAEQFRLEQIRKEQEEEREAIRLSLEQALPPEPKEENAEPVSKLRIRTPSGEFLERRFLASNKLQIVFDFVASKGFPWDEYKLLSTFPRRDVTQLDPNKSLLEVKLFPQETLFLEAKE
The experiment is described as follows: yeast two-hybrid, quantitative liquid β-galactosidase assay. To be noted: chain shown with the change; yeast strain L40; parent: est. 1500000; read off a plot.

For experiment [1], the target named is T2, Gal4 AD-mSin3A (full-length), Q60520.
T2 chain: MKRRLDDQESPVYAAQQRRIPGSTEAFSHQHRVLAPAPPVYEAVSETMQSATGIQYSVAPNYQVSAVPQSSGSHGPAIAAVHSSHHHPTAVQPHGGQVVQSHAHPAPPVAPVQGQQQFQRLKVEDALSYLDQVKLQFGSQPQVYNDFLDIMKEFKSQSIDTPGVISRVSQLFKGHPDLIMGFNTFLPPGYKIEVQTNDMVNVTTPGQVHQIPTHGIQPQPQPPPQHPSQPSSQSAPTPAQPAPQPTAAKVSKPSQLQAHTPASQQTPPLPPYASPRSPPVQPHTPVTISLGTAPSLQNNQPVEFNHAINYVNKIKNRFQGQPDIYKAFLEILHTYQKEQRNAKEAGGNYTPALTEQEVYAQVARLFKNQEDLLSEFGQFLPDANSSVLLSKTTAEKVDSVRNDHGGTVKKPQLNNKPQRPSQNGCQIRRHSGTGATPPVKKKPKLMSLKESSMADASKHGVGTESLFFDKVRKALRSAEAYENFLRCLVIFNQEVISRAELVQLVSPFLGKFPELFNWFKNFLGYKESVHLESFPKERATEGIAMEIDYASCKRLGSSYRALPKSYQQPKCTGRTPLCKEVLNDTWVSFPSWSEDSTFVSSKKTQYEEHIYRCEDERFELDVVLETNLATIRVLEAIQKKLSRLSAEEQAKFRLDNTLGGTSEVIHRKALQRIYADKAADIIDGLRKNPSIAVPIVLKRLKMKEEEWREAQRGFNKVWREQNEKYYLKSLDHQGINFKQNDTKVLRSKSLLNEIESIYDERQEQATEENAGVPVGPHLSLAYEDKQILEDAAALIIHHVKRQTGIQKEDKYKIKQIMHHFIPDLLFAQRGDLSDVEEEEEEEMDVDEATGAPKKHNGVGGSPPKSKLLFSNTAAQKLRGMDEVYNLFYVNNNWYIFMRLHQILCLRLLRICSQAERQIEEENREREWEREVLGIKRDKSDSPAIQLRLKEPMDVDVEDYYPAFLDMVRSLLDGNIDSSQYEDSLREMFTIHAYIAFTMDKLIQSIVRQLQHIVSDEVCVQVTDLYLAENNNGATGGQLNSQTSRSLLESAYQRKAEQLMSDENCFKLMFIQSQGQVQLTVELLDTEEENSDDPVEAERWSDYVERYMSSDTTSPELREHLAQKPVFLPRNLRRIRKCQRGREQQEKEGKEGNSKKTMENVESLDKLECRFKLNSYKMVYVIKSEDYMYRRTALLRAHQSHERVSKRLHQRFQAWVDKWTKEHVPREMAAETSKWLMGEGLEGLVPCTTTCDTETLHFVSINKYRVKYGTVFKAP
The description is as above. Conditions: chain shown with the change; yeast strain L40; parent: est. 60000; read off a plot.

B1: LexA-SAP130 C-terminal region (amino acids 760-1048) WT, Q9H0E3 K794A; K878A; K932A (protein)
chain: APPPSVTVGGSLSSVLGPPVPEIKVAEEVEPMDIMRPVSAVPPLATNTVSPSLALLANNLSMPTSDLPPGASPRKKPRKQQHVISTEEGDMMETNSTDDEKSTAKSLLVAAEKRKSPPKEYIDEEGVRYVPVRPRPPITLLRHYRNPWKAAYHHFQRYSDVRVAEEKKAMLQEIANQKGVSCRAQGWKVHLCAAQLLQLTNLEHDVYERLTNLQEGIIPKKKAATDDDLHRINELIQGNMQRCKLVMDQISEARDSMLKVLDHKDRVLKLLNKNGTVKKVSKLKRKEKV
In the case of B1, the response with Gal4 AD-FAF1 WT, Q9UNN5 was 43000; in experiment [1] it was 190000.
